Starred links: 1 amine or outer side, 2 acyl side, 3 side chain; linkers in the order of their positions; H or OH if unused. Positions of bridges follow the written chain, without caps; N, C: chain ends. *: point of attachment. C20 diacid = O=C(O)CCCCCCCCCCCCCCCCCCC(=O)*; 19‑carboxyheptadecanoyl = not defined here; C18 diacid = O=C(O)CCCCCCCCCCCCCCCCC(=O)*; γGlu = O=C(O)[C@H](CCC(=O)[*:2])N[*:1]; AEEA = NCCOCCOCC(=O)O
T1: human calcitonin (a) receptor (human, UniProt P30988 25-474)
T1 sequence (looked up): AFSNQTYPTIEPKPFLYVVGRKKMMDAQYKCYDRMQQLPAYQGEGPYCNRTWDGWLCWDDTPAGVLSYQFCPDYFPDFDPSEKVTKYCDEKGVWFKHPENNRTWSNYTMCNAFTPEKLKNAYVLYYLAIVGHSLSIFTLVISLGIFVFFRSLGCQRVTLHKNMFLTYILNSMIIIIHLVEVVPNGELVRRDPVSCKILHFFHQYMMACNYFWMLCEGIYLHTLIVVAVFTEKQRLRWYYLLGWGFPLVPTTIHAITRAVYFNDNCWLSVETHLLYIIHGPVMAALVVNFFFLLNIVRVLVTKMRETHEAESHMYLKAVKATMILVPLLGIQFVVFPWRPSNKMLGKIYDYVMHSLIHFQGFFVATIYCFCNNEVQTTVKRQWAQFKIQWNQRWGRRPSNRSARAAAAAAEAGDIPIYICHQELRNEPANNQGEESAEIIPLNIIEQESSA

T2: human amylin 3(a) receptor (human calcitonin receptor + RAMP-3) (human, UniProt P30988 25-474; O60896 24-148)
T2 sequence (looked up) 1: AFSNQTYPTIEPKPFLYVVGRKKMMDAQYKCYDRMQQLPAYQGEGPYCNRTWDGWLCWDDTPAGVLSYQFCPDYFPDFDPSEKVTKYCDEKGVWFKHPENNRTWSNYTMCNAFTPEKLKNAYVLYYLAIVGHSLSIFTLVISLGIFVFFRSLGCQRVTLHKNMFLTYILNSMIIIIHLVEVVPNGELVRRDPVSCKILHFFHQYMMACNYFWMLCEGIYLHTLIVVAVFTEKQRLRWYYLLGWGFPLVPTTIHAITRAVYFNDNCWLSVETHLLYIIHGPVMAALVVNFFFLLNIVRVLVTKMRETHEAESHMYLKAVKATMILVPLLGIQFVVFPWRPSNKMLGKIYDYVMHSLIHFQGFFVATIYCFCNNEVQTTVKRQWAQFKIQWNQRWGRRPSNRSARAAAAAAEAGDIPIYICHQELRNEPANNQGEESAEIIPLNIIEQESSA
T2 sequence (looked up) 2: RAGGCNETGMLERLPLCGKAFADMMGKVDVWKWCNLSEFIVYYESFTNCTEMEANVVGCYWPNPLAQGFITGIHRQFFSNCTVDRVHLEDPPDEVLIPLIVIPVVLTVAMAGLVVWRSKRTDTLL


Columns and labels:
[1] = target: T1, human calcitonin (a) receptor; test: cell-based or functional assay
[2] = target: T2, human amylin 3(a) receptor (human …); test: cell-based or functional assay

| Binder | CTa receptor human EC50 [1] | Amylin receptor human EC50 [2] |
| --- | --- | --- |
| {C20 diacid-γGlu}-HHHCHTATCATQRLAEFLHHSSNNFGPILPPTNVGSNTY-NH2 (disulfide 4-9; SMILES CC[C@H](C)[C@H](NC(=O)[C@@H]1CCCN1C(=O)CNC(=O)[C@H](Cc1ccccc1)NC(=O)[C@H](CC(N)=O)NC(=O)[C@H](CC(N)=O)NC(=O)[C@H](CO)NC(=O)[C@H](CO)NC(=O)[C@H](Cc1c[nH]cn1)NC(=O)[C@H](Cc1c[nH]cn1)NC(=O)[C@H](CC(C)C)NC(=O)[C@H](Cc1ccccc1)NC(=O)[C@H](CCC(=O)O)NC(=O)[C@H](C)NC(=O)[C@H](CC(C)C)NC(=O)[C@H](CCCNC(=N)N)NC(=O)[C@H](CCC(N)=O)NC(=O)[C@@H](NC(=O)[C@H](C)NC(=O)[C@@H]1CSSC[C@H](NC(=O)[C@H](Cc2c[nH]cn2)NC(=O)[C@H](Cc2c[nH]cn2)NC(=O)[C@H](Cc2c[nH]cn2)NC(=O)CC[C@H](NC(=O)CCCCCCCCCCCCCCCCCCC(=O)O)C(=O)O)C(=O)N[C@@H](Cc2c[nH]cn2)C(=O)N[C@@H]([C@@H](C)O)C(=O)N[C@@H](C)C(=O)N[C@@H]([C@@H](C)O)C(=O)N1)[C@@H](C)O)C(=O)N[C@@H](CC(C)C)C(=O)N1CCC[C@H]1C(=O)N1CCC[C@H]1C(=O)N[C@H](C(=O)N[C@@H](CC(N)=O)C(=O)N[C@H](C(=O)NCC(=O)N[C@@H](CO)C(=O)N[C@@H](CC(N)=O)C(=O)N[C@H](C(=O)N[C@@H](Cc1ccc(O)cc1)C(N)=O)[C@@H](C)O)C(C)C)[C@@H](C)O) | 0.801 nM | 0.286 nM |
| {C20 diacid-γGlu}-HHHCNTATCATQRLAEFLHHSSNNFGPILPHTNVGSNTY-NH2 (disulfide 4-9; SMILES CC[C@H](C)[C@H](NC(=O)[C@@H]1CCCN1C(=O)CNC(=O)[C@H](Cc1ccccc1)NC(=O)[C@H](CC(N)=O)NC(=O)[C@H](CC(N)=O)NC(=O)[C@H](CO)NC(=O)[C@H](CO)NC(=O)[C@H](Cc1c[nH]cn1)NC(=O)[C@H](Cc1c[nH]cn1)NC(=O)[C@H](CC(C)C)NC(=O)[C@H](Cc1ccccc1)NC(=O)[C@H](CCC(=O)O)NC(=O)[C@H](C)NC(=O)[C@H](CC(C)C)NC(=O)[C@H](CCCNC(=N)N)NC(=O)[C@H](CCC(N)=O)NC(=O)[C@@H](NC(=O)[C@H](C)NC(=O)[C@@H]1CSSC[C@H](NC(=O)[C@H](Cc2c[nH]cn2)NC(=O)[C@H](Cc2c[nH]cn2)NC(=O)[C@H](Cc2c[nH]cn2)NC(=O)CC[C@H](NC(=O)CCCCCCCCCCCCCCCCCCC(=O)O)C(=O)O)C(=O)N[C@@H](CC(N)=O)C(=O)N[C@@H]([C@@H](C)O)C(=O)N[C@@H](C)C(=O)N[C@@H]([C@@H](C)O)C(=O)N1)[C@@H](C)O)C(=O)N[C@@H](CC(C)C)C(=O)N1CCC[C@H]1C(=O)N[C@@H](Cc1c[nH]cn1)C(=O)N[C@H](C(=O)N[C@@H](CC(N)=O)C(=O)N[C@H](C(=O)NCC(=O)N[C@@H](CO)C(=O)N[C@@H](CC(N)=O)C(=O)N[C@H](C(=O)N[C@@H](Cc1ccc(O)cc1)C(N)=O)[C@@H](C)O)C(C)C)[C@@H](C)O) | 0.191 nM | 0.167 nM |
| {19‑carboxyheptadecanoyl-γGlu-AEEA-AEEA}-CNTATCATQRLAEFLHHSSNNFGPILPPTNVGSNTY-NH2 (disulfide 1-6; reading uncertain; also: printed as N-alpha-[2-(2-{2-[2-(2-{2-[(S)-4-Carboxy-4-(19-carboxyheptadecanoylamino)butyrylamino]ethoxy}ethoxy)acetylamino]ethoxy}ethoxy)acetyl]-[des1,Glu14,His17]-pramlintide) | 0.672 nM | 0.334 nM |
| {C18 diacid-γGlu}-HHHCNTATCATQRLAEFLHHSSNNFGPILPPTNVGSNTY-NH2 (disulfide 4-9; SMILES CC[C@H](C)[C@H](NC(=O)[C@@H]1CCCN1C(=O)CNC(=O)[C@H](Cc1ccccc1)NC(=O)[C@H](CC(N)=O)NC(=O)[C@H](CC(N)=O)NC(=O)[C@H](CO)NC(=O)[C@H](CO)NC(=O)[C@H](Cc1c[nH]cn1)NC(=O)[C@H](Cc1c[nH]cn1)NC(=O)[C@H](CC(C)C)NC(=O)[C@H](Cc1ccccc1)NC(=O)[C@H](CCC(=O)O)NC(=O)[C@H](C)NC(=O)[C@H](CC(C)C)NC(=O)[C@H](CCCNC(=N)N)NC(=O)[C@H](CCC(N)=O)NC(=O)[C@@H](NC(=O)[C@H](C)NC(=O)[C@@H]1CSSC[C@H](NC(=O)[C@H](Cc2c[nH]cn2)NC(=O)[C@H](Cc2c[nH]cn2)NC(=O)[C@H](Cc2c[nH]cn2)NC(=O)CC[C@H](NC(=O)CCCCCCCCCCCCCCCCC(=O)O)C(=O)O)C(=O)N[C@@H](CC(N)=O)C(=O)N[C@@H]([C@@H](C)O)C(=O)N[C@@H](C)C(=O)N[C@@H]([C@@H](C)O)C(=O)N1)[C@@H](C)O)C(=O)N[C@@H](CC(C)C)C(=O)N1CCC[C@H]1C(=O)N1CCC[C@H]1C(=O)N[C@H](C(=O)N[C@@H](CC(N)=O)C(=O)N[C@H](C(=O)NCC(=O)N[C@@H](CO)C(=O)N[C@@H](CC(N)=O)C(=O)N[C@H](C(=O)N[C@@H](Cc1ccc(O)cc1)C(N)=O)[C@@H](C)O)C(C)C)[C@@H](C)O) | 0.265 nM | 0.0624 nM |
| {C20 diacid-γGlu}-EEKCNTATCATQRLAEFLHHSSNNFGPILPPTNVGSNTY-NH2 (disulfide 4-9; SMILES CC[C@H](C)[C@H](NC(=O)[C@@H]1CCCN1C(=O)CNC(=O)[C@H](Cc1ccccc1)NC(=O)[C@H](CC(N)=O)NC(=O)[C@H](CC(N)=O)NC(=O)[C@H](CO)NC(=O)[C@H](CO)NC(=O)[C@H](Cc1c[nH]cn1)NC(=O)[C@H](Cc1c[nH]cn1)NC(=O)[C@H](CC(C)C)NC(=O)[C@H](Cc1ccccc1)NC(=O)[C@H](CCC(=O)O)NC(=O)[C@H](C)NC(=O)[C@H](CC(C)C)NC(=O)[C@H](CCCNC(=N)N)NC(=O)[C@H](CCC(N)=O)NC(=O)[C@@H](NC(=O)[C@H](C)NC(=O)[C@@H]1CSSC[C@H](NC(=O)[C@H](CCCCN)NC(=O)[C@H](CCC(=O)O)NC(=O)[C@H](CCC(=O)O)NC(=O)CC[C@H](NC(=O)CCCCCCCCCCCCCCCCCCC(=O)O)C(=O)O)C(=O)N[C@@H](CC(N)=O)C(=O)N[C@@H]([C@@H](C)O)C(=O)N[C@@H](C)C(=O)N[C@@H]([C@@H](C)O)C(=O)N1)[C@@H](C)O)C(=O)N[C@@H](CC(C)C)C(=O)N1CCC[C@H]1C(=O)N1CCC[C@H]1C(=O)N[C@H](C(=O)N[C@@H](CC(N)=O)C(=O)N[C@H](C(=O)NCC(=O)N[C@@H](CO)C(=O)N[C@@H](CC(N)=O)C(=O)N[C@H](C(=O)N[C@@H](Cc1ccc(O)cc1)C(N)=O)[C@@H](C)O)C(C)C)[C@@H](C)O) [N-alpha-[(S)-4-Carboxy-4-(19-carboxynonadecanoylamino)butyryl]-Glu-Glu-[Glu14,His17]-pramlintide] | 0.798 nM | 0.402 nM |
| {C20 diacid-γGlu}-EHCNTATCATQRLAEFLHHSSNNFGPILPPTNVGSNTY-NH2 (disulfide 3-8; SMILES CC[C@H](C)[C@H](NC(=O)[C@@H]1CCCN1C(=O)CNC(=O)[C@H](Cc1ccccc1)NC(=O)[C@H](CC(N)=O)NC(=O)[C@H](CC(N)=O)NC(=O)[C@H](CO)NC(=O)[C@H](CO)NC(=O)[C@H](Cc1c[nH]cn1)NC(=O)[C@H](Cc1c[nH]cn1)NC(=O)[C@H](CC(C)C)NC(=O)[C@H](Cc1ccccc1)NC(=O)[C@H](CCC(=O)O)NC(=O)[C@H](C)NC(=O)[C@H](CC(C)C)NC(=O)[C@H](CCCNC(=N)N)NC(=O)[C@H](CCC(N)=O)NC(=O)[C@@H](NC(=O)[C@H](C)NC(=O)[C@@H]1CSSC[C@H](NC(=O)[C@H](Cc2c[nH]cn2)NC(=O)[C@H](CCC(=O)O)NC(=O)CC[C@H](NC(=O)CCCCCCCCCCCCCCCCCCC(=O)O)C(=O)O)C(=O)N[C@@H](CC(N)=O)C(=O)N[C@@H]([C@@H](C)O)C(=O)N[C@@H](C)C(=O)N[C@@H]([C@@H](C)O)C(=O)N1)[C@@H](C)O)C(=O)N[C@@H](CC(C)C)C(=O)N1CCC[C@H]1C(=O)N1CCC[C@H]1C(=O)N[C@H](C(=O)N[C@@H](CC(N)=O)C(=O)N[C@H](C(=O)NCC(=O)N[C@@H](CO)C(=O)N[C@@H](CC(N)=O)C(=O)N[C@H](C(=O)N[C@@H](Cc1ccc(O)cc1)C(N)=O)[C@@H](C)O)C(C)C)[C@@H](C)O) [N-alpha-[(S)-4-Carboxy-4-(19-carboxynonadecanoylamino)butyryl]-Glu-[His1,Glu14,His17]-pramlintide] | 0.439 nM | 0.248 nM |

Reference: patent US20130005646A1 (Novo Nordisk, published 2013)
